Test results reported in the supplement of paper PMC7125110.
± gives the standard error. For some of these results: Fewer inactive variants are shown than the library holds.

B1: glmS ribozyme (parent)
chain: AUAAAAGCGCCAGAACUACAGAAAUGUAGUUGACGAGGAGGAGGUUUAUCGAAUUUUCGGCGGAUGCCUCCAAA

Experiments:
Conditions in all cases: with glucosamine-6-phosphate
[1] = variants of: B1; assay: kcat; higher = faster cleavage; RNA array
Method in brief: (§1)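 Tiles of sequenced MiSeq chips were imaged over ~14 h at 37 °C. On them, barcoded ribozyme variants had been transcribed in situ by E. coli RNA polymerase and were tracked via a hybridised Cy3 probe while glucosamine-6-phosphate (40 μM to 10 mM) in HEPES/KCl/Mg(OAc)2 buffer flowed in. Per-tile medians, normalised to baseline and to non-cleaving reference variants, were fit to one- or two-exponential decays for kobs, and weighted Michaelis–Menten fits gave kcat and KM.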

[2] = variants of: B1; assay: self-cleavage kobs at 40 uM GlcN6P; higher = faster cleavage; RNA array
Method in brief: as §1

[3] = variants of: B1; assay: self-cleavage kobs at 160 uM GlcN6P; higher = faster cleavage; RNA array
Method in brief: as §1

[4] = variants of: B1; assay: self-cleavage kobs at 2500 uM GlcN6P; higher = faster cleavage; RNA array
Method in brief: as §1

[5] = variants of: B1; assay: self-cleavage kobs at 10000 uM GlcN6P; higher = faster cleavage; RNA array
Method in brief: as §1

[6] = variants of: B1; assay: self-cleavage kobs at 640 uM GlcN6P; higher = faster cleavage; RNA array
Method in brief: as §1

[7] = variants of: B1; assay: KM; higher = weaker cofactor use; RNA array
Method in brief: as §1

Variant: AUAAAAGCGCGAGGACUACAGAAAUGUAGUUGACGAGGAGGAGGUUUAUCGAAUUUUCGGCGGAUGCCUCCAAA
- kcat [1]: 1.62e-05 ± 3.1e-06 s⁻¹
- self-cleavage kobs at 40 uM GlcN6P [2]: < 1e-05 s⁻¹
- self-cleavage kobs at 160 uM GlcN6P [3]: < 1e-05 s⁻¹

Variant: AUAAAAGCGCAAGAACUACAGAAAUGUAGUUGACGAGGAGGAGGUUUAUCGAAGUUUCGGCGGAUGCCUCCAAA
- kcat [1]: 0.000149 ± 2.7e-05 s⁻¹
- self-cleavage kobs at 2500 uM GlcN6P [4]: 7.77e-05 ± 1.3e-05 s⁻¹
- self-cleavage kobs at 10000 uM GlcN6P [5]: 0.000123 ± 1.4e-05 s⁻¹

Variant: AUAAAAGCGCAAGAACUACAGAAAUGUAGUUGACGAGGAGGAGGUUUAUCGAAUUUUCGGCGGAUGCCCCCAAA
- kcat [1]: 6.61e-05 ± 1e-05 s⁻¹
- self-cleavage kobs at 640 uM GlcN6P [6]: 7.71e-05 ± 3.5e-05 s⁻¹
- self-cleavage kobs at 2500 uM GlcN6P [4]: 7.67e-05 ± 1.5e-05 s⁻¹
- self-cleavage kobs at 10000 uM GlcN6P [5]: 4.97e-05 ± 1.6e-05 s⁻¹

Variant: AUAAAAGCGCAAGAACUACAGAAAUGUAGUUGACGAGGAGGAGGUUUAACGAAUUUUCGGCGGAUGCCUCCAAA
- kcat [1]: < 1e-05 s⁻¹
- self-cleavage kobs at 640 uM GlcN6P [6]: < 1e-05 s⁻¹
- self-cleavage kobs at 2500 uM GlcN6P [4]: < 1e-05 s⁻¹

Variant: AUAAAAGCGCAAGAACUACAGAAAUGUAGUUGACGAGGAGGAGGUUUAUCGAAUCUUCGGCGGAUGCCUCCAAA
- kcat [1]: 0.000132 ± 2.4e-05 s⁻¹
- self-cleavage kobs at 640 uM GlcN6P [6]: 3.19e-05 ± 1.5e-05 s⁻¹
- self-cleavage kobs at 2500 uM GlcN6P [4]: 0.000125 ± 4.2e-05 s⁻¹
- self-cleavage kobs at 10000 uM GlcN6P [5]: 0.000109 ± 2.1e-05 s⁻¹

Variant: AUAAAAGCGCUAGAACUACAGAAAUGUAGUUGACGAGGAGGGGGUUUAUCGAAUUUUCGGCGGAUGCCUCCAAA
- kcat [1]: 0.00345 ± 0.0015 s⁻¹
- self-cleavage kobs at 40 uM GlcN6P [2]: 9.14e-05 ± 3.5e-05 s⁻¹
- self-cleavage kobs at 160 uM GlcN6P [3]: 0.000114 ± 3e-05 s⁻¹
- self-cleavage kobs at 640 uM GlcN6P [6]: 0.000561 ± 0.00013 s⁻¹
- self-cleavage kobs at 2500 uM GlcN6P [4]: 0.00178 ± 0.0004 s⁻¹
- self-cleavage kobs at 10000 uM GlcN6P [5]: 0.0022 ± 0.00065 s⁻¹

Variant: AUAAAAGCGCAAGAACUACAGAAAUGUAGUUGACGAGGAGGAGGAUUAUCGAAUUUUCGGCGGAUGCCUCCAAA
- kcat [1]: 0.000361 ± 6.9e-05 s⁻¹
- KM [7]: 3010 ± 1100 µM
- self-cleavage kobs at 640 uM GlcN6P [6]: 5.63e-05 ± 1.2e-05 s⁻¹
- self-cleavage kobs at 2500 uM GlcN6P [4]: 0.000214 ± 3.6e-05 s⁻¹
- self-cleavage kobs at 10000 uM GlcN6P [5]: 0.000262 ± 3.8e-05 s⁻¹

Variant: AUAAAAGCGCGAGAACUACAGAAAUGUAGUUGACGAGGAGGAAGUUUAUCGAAUUUUCGGCGGAUGCCUCCAAA
- kcat [1]: < 1e-05 s⁻¹
- KM [7]: 525 ± 190 µM
- self-cleavage kobs at 40 uM GlcN6P [2]: < 1e-05 s⁻¹
- self-cleavage kobs at 160 uM GlcN6P [3]: < 1e-05 s⁻¹
- self-cleavage kobs at 640 uM GlcN6P [6]: < 1e-05 s⁻¹
- self-cleavage kobs at 10000 uM GlcN6P [5]: < 1e-05 s⁻¹

Variant: AUAAAAGCGCUAGACCUACAGAAAUGUAGUUGACGAGGAGGAGGUUUAUCGAAUUUUCGGCGGAUGCCUCCAAA
- kcat [1]: 0.000738 ± 0.00012 s⁻¹
- KM [7]: 2490 ± 850 µM
- self-cleavage kobs at 160 uM GlcN6P [3]: 2.57e-05 ± 1.1e-05 s⁻¹
- self-cleavage kobs at 640 uM GlcN6P [6]: 0.000194 ± 2.9e-05 s⁻¹
- self-cleavage kobs at 2500 uM GlcN6P [4]: 0.000368 ± 6.1e-05 s⁻¹
- self-cleavage kobs at 10000 uM GlcN6P [5]: 0.000585 ± 4.9e-05 s⁻¹

Variant: AUAAAAGCGCUAGGACUACAGAAAUGUAGUUGACGAGGAGGAGGUUUAUCGAAUUUUCGGCGGAUGCCUCCAAA
- kcat [1]: 0.0102 ± 0.0018 s⁻¹
- KM [7]: 2230 ± 580 µM
- self-cleavage kobs at 40 uM GlcN6P [2]: 0.000229 ± 4e-05 s⁻¹
- self-cleavage kobs at 160 uM GlcN6P [3]: 0.000583 ± 0.00013 s⁻¹
- self-cleavage kobs at 640 uM GlcN6P [6]: 0.00207 ± 0.0003 s⁻¹
- self-cleavage kobs at 2500 uM GlcN6P [4]: 0.00674 ± 0.0012 s⁻¹
- self-cleavage kobs at 10000 uM GlcN6P [5]: 0.00811 ± 0.001 s⁻¹

Variant: AUAAAAGCGCGAGAACUACAGAAAUGUAGUUGACGAGGAGGAGGUUUAUCGAAUUUUCGGCGGAUACCUCCAAA
- kcat [1]: < 1e-05 s⁻¹
- self-cleavage kobs at 40 uM GlcN6P [2]: < 1e-05 s⁻¹
- self-cleavage kobs at 160 uM GlcN6P [3]: < 1e-05 s⁻¹
- self-cleavage kobs at 640 uM GlcN6P [6]: < 1e-05 s⁻¹
- self-cleavage kobs at 10000 uM GlcN6P [5]: < 1e-05 s⁻¹

Variant: AUAAAAGCGCAAGAACUACAGAAAUGUAGUAGACGAGGAGGAGGUUUAUCGAAUUUUCGGCGGAUGCCUCCAAA
- kcat [1]: 0.00019 ± 2e-05 s⁻¹
- KM [7]: 1480 ± 350 µM
- self-cleavage kobs at 640 uM GlcN6P [6]: 5.42e-05 ± 1e-05 s⁻¹
- self-cleavage kobs at 2500 uM GlcN6P [4]: 0.000147 ± 2.8e-05 s⁻¹
- self-cleavage kobs at 10000 uM GlcN6P [5]: 0.000158 ± 2.3e-05 s⁻¹

Variant: AUAAAAGCGCAAGAACUACAGAAAUGUAGUGGACGAGGAGGAGGUUUAUCGAAUUUUCGGCGGAUGCCUCCAAA
- kcat [1]: 0.000375 ± 9.9e-05 s⁻¹
- KM [7]: 3900 ± 1600 µM
- self-cleavage kobs at 640 uM GlcN6P [6]: 4.58e-05 ± 1.1e-05 s⁻¹
- self-cleavage kobs at 2500 uM GlcN6P [4]: 0.000179 ± 3.7e-05 s⁻¹
- self-cleavage kobs at 10000 uM GlcN6P [5]: 0.000253 ± 5.7e-05 s⁻¹

Variant: AUAAAAGCGCAAGAACUACAGAAAUGUAGUUGACGAGGAGGAGGUUUAUCGAAUUUCCGGCGGAUGCCUCCAAA
- kcat [1]: < 1e-05 s⁻¹
- self-cleavage kobs at 640 uM GlcN6P [6]: < 1e-05 s⁻¹

Variant: AUAAAAGCGCAAGAACUACAGAAAUGUAGUUGACGAGGAGGAGGUUUAUCGAAUUUGCGGCGGAUGCCUCCAAA
- kcat [1]: < 1e-05 s⁻¹
- self-cleavage kobs at 160 uM GlcN6P [3]: < 1e-05 s⁻¹

Variant: AUAAAAGCGCGAGAACUACAGAAAUGUAGUUGUCGAGGAGGAGGUUUAUCGAAUUUUCGGCGGAUGCCUCCAAA
- kcat [1]: < 1e-05 s⁻¹
- self-cleavage kobs at 160 uM GlcN6P [3]: < 1e-05 s⁻¹
- self-cleavage kobs at 2500 uM GlcN6P [4]: < 1e-05 s⁻¹

Variant: AUAAAAGCGCGGGAACUACAGAAAUGUAGUUGACGAGGAGGAGGUUUAUCGAAUUUUCGGCGGAUGCCUCCAAA
- kcat [1]: < 1e-05 s⁻¹
- KM [7]: 16.2 ± 6.9 µM
- self-cleavage kobs at 40 uM GlcN6P [2]: < 1e-05 s⁻¹
- self-cleavage kobs at 160 uM GlcN6P [3]: < 1e-05 s⁻¹
- self-cleavage kobs at 10000 uM GlcN6P [5]: < 1e-05 s⁻¹

Variant: AUAAAAGCGCGAGAGCUACAGAAAUGUAGUUGACGAGGAGGAGGUUUAUCGAAUUUUCGGCGGAUGCCUCCAAA
- kcat [1]: 1.01e-05 ± 1.4e-06 s⁻¹
- self-cleavage kobs at 640 uM GlcN6P [6]: < 1e-05 s⁻¹

Variant: AUAAAAGCGCGAGAACUACAGAAAUGUAGUUGACGAGGAGGAGGUUUAUCGAAUUUUCUGCGGAUGCCUCCAAA
- kcat [1]: 0.000116 ± 2.9e-05 s⁻¹
- self-cleavage kobs at 2500 uM GlcN6P [4]: 0.000106 ± 2.1e-05 s⁻¹
- self-cleavage kobs at 10000 uM GlcN6P [5]: 9.62e-05 ± 1.5e-05 s⁻¹
